Experimental data from article PMC10572585.

Test system: MBP-CPEB
Experiment: EMSA
Conditions: 10 mM HEPES-KOH pH 7.9, 50 mM KCl, 1 mM MgCl2, 0.1 mM ZnCl2, 0.1% NP-40, 1 mM DTT, 2 ug yeast tRNA, 2 ug BSA, 12 U RNaseOUT, 10 uL, 15 fmol RNA, room …

c-myc pA2 ncCPE2 only (cCPE and ncCPE1 mutated)
Kd (low affinity, Kd lower bound): > 1000 nM

c-myc pA2 ncCPE1/2 (cCPE mutated)
Kd (no second CPEB binding): 891 nM

c-myc pA2 ncCPE1 only (cCPE and ncCPE2 mutated)
Kd: 890 nM

c-myc 3'UTR pA2 wild type (cCPE + ncCPE1 + ncCPE2)
Kd (two CPEB molecules bound (second shift)): 279 nM

c-myc pA2 cCPE only (ncCPE1 and ncCPE2 mutated)
Kd: 212 nM
